The results in this text go back to the nanobody polyreactivity screen of Harvey et al. (2022).

This data set in a line: yeast display, Sf9 membrane polyspecificity reagent, FACS + sequencing; frameworks hold sequencing errors. The method in brief: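 Sorting gates, low and high (top ~1%), were placed on anti-HA fluorescence to track expression and on streptavidin fluorescence to track reagent binding. A clone's polyreactivity label is taken from the gate it came out of. The reagent was 10% biotinylated, detergent-solubilized Sf9 membrane, applied for 1 hour at 4 °C to galactose-induced yeast display cells.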
On to “QVQLVESGGGLVQAGGSLRLSCDASGFIFVRYAMGWYRQAPGKEREFVAAISRSGGSTYYADSVKGRFTISRDNAKNTVYLQMNSLKPEDTAVYYCARQYASPRREFEYWGQGTQVTVSS”, for which the “polyreactivity (PSR sort gate)” value is on record as “high polyreactivity”.

As to “QVQLVESGGGLVQAGGSLRLSCDASGFILYYNAMGWYRQAPGKEREMVAAITSGGGGTYYADSVKGRFTNSRDNAKNTVYFQMNSLNPEDTAVYYCNTRFGYRGGVDFDYWGQGTQVTVSS”, the “polyreactivity (PSR sort gate)” value is on record as “high polyreactivity”. The same measure for “QVQLVESGGGLVQAGGSLRLSCDASGFTFGRNAMGWYRQAPGKERELVAAISSSGGTTYYADSVKGRFTISRDNAKNTVYLQMNSLKPEDTAVYYCAAGYYYRYDYWGQGTQVTVSS”: “high polyreactivity”; for “QVQLVESGGGLVQAGGSLRLSCDASGFTFPSYAMGWYRQAPGKERELVAAISYRGGRTYYADSVKGRFTISRDNAKNTVYLQMNSLKPEDTAVYYCAAAGYAWWGEYEYWGQGTQVTVSS”: “high polyreactivity”. The same measure for “QVQLVESGGGLVQAGGSLRLSCDASGFTFVYYAMGCYRQAPGKERELVAAISGRGGSTYYADSVKGRFTISRDNAKNTVYLQMNSLKPEDTAVYYCATTYSWYYVPYKTHIYYYWGQGTQVTVSS”: “low polyreactivity”; for “QVQLVESGGGLVQAGGSLRLSCDASGFTFYKNAMGWYRQAPGKERELVAAISSGGSTSYADSVKGRFTISRDNAKNTVYLQMNSLKPEDTAVYFCAADRFAFYGRYRGPYYYWGQGTQVTVSS”: “high polyreactivity”. With “QVQLVESGGGLVQAGGSLRLSCDASGFTFYYYAMGWYRPAPGKERELVAAISSSGSSTYYADSVKGRFTISRDNAKNTVYLQMNSLKPEDTAVYYCNARRYEYLWGDYWGQGTQVTVSS” the entry was “high polyreactivity”; with “QVQLVESGGGLVQAGGSLRLSCDASGGTFYVNHMAWYRPAPWKERELVATITYSGTSTYYADSVKGRFTISRDNAKNTVYLQMNSLKPEDTAVYYCATDVLLYFEPVNLDYWGQGTQVTVSS”, “low polyreactivity”; with “QVQLVESGGGLVQAGGSLRLSCDASGIIFAWYAMGWSRQAPGKERELVAAISSDGITKDADSVKGRFTISRDNAKNTVYLQMNSLKPEDTAVYYCAAGLGWGLYWIDSYEYWGQGTQVTVSS”, “low polyreactivity”.

On to “QVQLVESGGGLVQAGGSLRLSCDASGIIFGYYAMGWYRQAPGKERELVAGITWRGDITYADSVKGRFTISRDNAKNTVYLQMNSLKPEDTAVYYCAAESSFYRGYGYWGQGTQVTVSS”, for which the “polyreactivity (PSR sort gate)” value is recorded as “high polyreactivity”. Regarding “QVQLVESGGGLVQAGGSLRLSCDASGIIFTFYTMGWYRQAPGKERELVAAITWSGGSTNYADSVKGRFTISRDNAKNTVYLQMNSLKPEDTAVYYCAAQGYPQSPPWEDYWGQGTQVTVSS”, the “polyreactivity (PSR sort gate)” value is given as “low polyreactivity”. Take “QVQLVESGGGLVQAGGSLRLSCDASGITFYRYAMGWYRQAPGKERELVAAITSGDTTYYADSVKGRFTISRDNAKNTVYLQMNSLKPEDTADYYCAAVAGYRVVRTRELGYWGQGTQVTVSS”: the “polyreactivity (PSR sort gate)” value is “high polyreactivity”. With “QVQLVESGGGLVQAGGSLRLSCDASGLTFRYYAMVWYRQAHGKERELDATITRAGRTNYADSVKGRFTISRDNAKNTVYFQMNRLNPEDTAVYYCNAKQSGKYPRVVGYDYWGQGTQVTVSS” the entry was “high polyreactivity”. Regarding “QVQLVESGGGLVQAGGSLRLSCDASGRIFQPNVMGWYRQAPGKERELVAAIRSGSSTYYADSVKGRFTISRDNAKNTFYLQMNSLKPEDTAVYYCATRYRKQYKPYEYWGQGTQVTVSS”, the “polyreactivity (PSR sort gate)” value is “high polyreactivity”. The same measure for “QVQLVESGGGLVQAGGSLRLSCDASGRIFRENAMGWYRQAPGKERELVAAINRSGSRTYYADSVKGRFTISRDNAKNTVYLQMNSLKPEDTAVYYCATASSIRYDYWGQGTQVTVSS”: “high polyreactivity”. As for “QVQLVESGGGLVQAGGSLRLSCDASGRIFSPNTMGWYRQAPGKERELVAAISRGGSTYADSVKGRFTISRDNAKITVYLQMNSLKPEDTAVYYCNARYGRYYGAYEYWGQGTQVTVSS”, the “polyreactivity (PSR sort gate)” value is on record as “high polyreactivity”.

With “QVQLVESGGGLVQAGGSLRLSCDASGRILKYYDMGWYRQAPGKERELVAAISVSGTSTYYADSVKGRFTISRDNAKNTVYLQMNSLKPEDTAVYYCATATGRYSFDYWGQGTQVTVSS”, the “polyreactivity (PSR sort gate)” value is on record as “low polyreactivity”.

As to “QVQLVESGGGLVQAGGSLRLSCDASGRIYGYNAIAWYRQAPGKERELVAAITNGGSTNYADSVKGRFTISRDNAKNTVFLQMNSLKPDETAVYYCAVKWYAPGHDYWGQGTQVTVSS”, the “polyreactivity (PSR sort gate)” value is “low polyreactivity”.

Turning to “QVQLVESGGGLVQAGGSLRLSCDASGRIYLYAMGWYRQAPGKERELVAAITTRAGRTYYADSVKGRFTISRDNAKNTVYFQMNSLKPEDNAVSYCAADGTRYPAYGYWGQGTQVTVSS”, the “polyreactivity (PSR sort gate)” value is given as “low polyreactivity”. With “QVQLVESGGGLVQAGGSLRLSCDASGRSSVSMLMVWYRQAPGKERELVARITGSGGSTYYADSVKGRFTISRDNAKNTVYLQMNSLKPEDTAVYYCAARYLWRGRYNYWGQGTQVTVSS” the entry was “high polyreactivity”. With “QVQLVESGGGLVQAGGSLRLSCDASGRTFDVYTKGWYRQAPGKERELVDANNGGGSTYYADSVKGRFTISRDNAKNTVYLQMNSLKPEDPAVFYCAAKFRAGRSSYRGSPRYDSWGQGTHVTVSS” the entry was “high polyreactivity”; with “QVQLVESGGGLVQAGGSLRLSCDASGRTFKYYAMGWYRQAPGKERELVAVITSGGSTYYADSVKGRFTISRDNAKNTVYLQMNSLKPEDTAVYYCAKSSHAREYYYWGQGTQVTVSS”, “low polyreactivity”; with “QVQLVESGGGLVQAGGSLRLSCDASGRTFLTNTMGWYRQAPGKERELVAAISSGGSTKYADSVKGRFTISRDNAKNTVYLQMNSLKPEDNAVYYCAATGWRYGYKYYYWGQGTQVTVSS”, “high polyreactivity”. Turning to “QVQLVESGGGLVQAGGSLRLSCDASGRTFPEYGMGWYRQAPGKEREFVAAISTRGGSTYYANSVKGRFTISRDNAKNTVYLQMNSLKPEDTAVYYCAAKYPGGETYPFDYWGQGTQVTVSS”, the “polyreactivity (PSR sort gate)” value is given as “low polyreactivity”.

In the case of “QVQLVESGGGLVQAGGSLRLSCDASGRTFRYYAMGWSRQAPGKERELVAAISASGGSTFYADSVKGRFTISRDNAKNSVYLQMKSLKPEDTAVYYCAAYHYCVFPYKQYDYWGQGTQVTVSS”, the “polyreactivity (PSR sort gate)” value is listed as “high polyreactivity”. With “QVQLVESGGGLVQAGGSLRLSCDASGSIFFSYAMGWYRQAPGTEREFVAAINSDDASTYADSVKGRFTISRDNAKNTVYLQMNSLKPEDTAVYYCADSFLWSWYDYWGQGTQVTVSS” the entry was “low polyreactivity”; with “QVQLVESGGGLVQAGGSLRLSCDASGSIFGSYVMGWSRQAPGKERELVAAISSSGASTYYADSVKGRFTISRDNAKNTVYLQMNSLKPEDTAVYYCATTRRPYVRGYPHYYWGQGTQVTVSS”, “high polyreactivity”. The same measure for “QVQLVESGGGLVQAGGSLRLSCDASGSIFIPYAMGWYRQAPGKERELVAAISGSGTSTNYADSVKGRFTISRDNAKNTVYLQMNSLKPEDTAVYYCAARLPYGYLRSKFYYWGQGTQVTVSS”: “high polyreactivity”; for “QVQLVESGGGLVQAGGSLRLSCDASGSIFNRNVMGWYRQAHGKERELVAVITGSGDSTFYADSVKGRFTISRDNAKNTVYLQRNSLIPDDTAVYYCNARLVSGGYYYWGLGTQVTVSS”: “low polyreactivity”. With “QVQLVESGGGLVQAGGSLRLSCDASGSIFPLYAMGWYRQAPGKERELVAAITSGTSTNYADSVKGRFTISRDNAKNTVYLQMNSLKPEDTAVYYCAADVYTRFWRVYRFDYWGQGTQVTVSS” the entry was “low polyreactivity”; with “QVQLVESGGGLVQAGGSLRLSCDASGSIFRPNAMGWYRQPPGKERELVAAITWIAGGTYYADSVKGRFTISRDNAKNTVYLQMNSLKPEDTAVYYCAARWYFQTGVGRYYHYDYWGQGTQVTVSS”, “high polyreactivity”; with “QVQLVESGGGLVQAGGSLRLSCDASGSIFSQYAMGWDRQAPGKEWELVAAITWSGGSTYYADSVMGRFTFSRDNAKNTVYLQMNSLKPEDTEVYYCAATGYYYTRSSTWYRYYYWGQGTQVTVSS”, “high polyreactivity”.

Regarding “QVQLVESGGGLVQAGGSLRLSCDASGSIFSYYAMGWYRQAPGKERELVAAITYRGGSTFYADSVKGRFTLSRDNAKNTVYFQMNRLKPEDTAVYYCATRYYVDQRYQYKYDYWGQGTQVTVSS”, the “polyreactivity (PSR sort gate)” value was “high polyreactivity”. For the sequence “QVQLVESGGGLVQAGGSLRLSCDASGSIFVLNAMGWYRQAPGKERELVAAISYSGGSTYYADSVKGRFTISRDNAKNTVYLQMNSLKPEDTAVYYCAADLVSYYGYSSEYEYWGQGTQVTVSS”, the “polyreactivity (PSR sort gate)” value was “high polyreactivity”. In the case of “QVQLVESGGGLVQAGGSLRLSCDASGSTFIYYTMGWYRQAPGKERELVAAINGGGGSTYYADSVKGRFTISRDNAKNTVYLQMNSLKPEDTAVYYCATDPWHRAWGYGWGYNYWGQGTQVTVSS”, the “polyreactivity (PSR sort gate)” value is reported as “low polyreactivity”. Take “QVQLVESGGGLVQAGGSLRLSCDASGSTFPKYAMGWYRQAPGKEWELVASISARGGGTHYADSVKGRFTISRDNAKNTVYLQMNSLKPEDTAVYYCNDVAHRQAQGAWGPGTQVTVSS”: the “polyreactivity (PSR sort gate)” value is “low polyreactivity”. With “QVQLVESGGGLVQAGGSLRLSCDDSGGIFQENAMGWYTQAPGKERELVATSTRSTGSTYYADSVKGRFTISRDTAKNTVYLQMNSLKPEDTAVYYCAARRLSQYYRYAYKYDYWGQVTQVTVSS” the entry was “high polyreactivity”; with “QVQLVESGGGLVQAGGSLRLSCDDSGSIFWWYTMGWYRQAPGKERELVAAITWNADGTYYADSVKGRFTISRDNAKNTVYLPINSLKPEDTAVYYCAADQYYLDWGGGYDYWGQGTQLTVSS”, “low polyreactivity”.

For “QVQLVESGGGLVQAGGSLRLSCDDSGTFFMGWNIPAPRKERELVAGISISDGSTYYADSVKGRFTISRDNAKNSVYLQMNSLKPEDTAVYYCAADSHYLYDYWGQGTQVTVSS”, the “polyreactivity (PSR sort gate)” value is given as “low polyreactivity”.

For the sequence “QVQLVESGGGLVQAGGSLRLSCGASGFFFEPNSMGWYRQATGKERELVAAISSGGSTYADSVKGRFTISRDNAKNPVYLQMNSLKPEDTAVYYCAARPNQSYYGLYYYWGQGTQVTVSS”, the “polyreactivity (PSR sort gate)” value is “low polyreactivity”. “QVQLVESGGGLVQAGGSLRLSCGASGFIFGSYAMGWYRQAPGKERELVAAISWSGGGTYYADSVKGRFTISRDNAKNTVYLQMNRLNPEDTAVYYCGALTRYKTASGYDYWGQGTQVTVSS”: the “polyreactivity (PSR sort gate)” value is on record as “high polyreactivity”.
